Earlier results in US20080107649A1, “Immunogenic compositions of cyclic peptides derived from the beta-amyloid peptide” (Pevion Biotech Ltd., priority 2004, published 2008).

Conditions: human, in vivo

For “Aβ1-42: β-amyloid peptide of 42 amino acids (SEQ ID NO: 1), predominantly found in the plaques”, which “side effect of inoculation” value is on record?
Its value is “severe side effect of cerebral inflammation in some patients”.
